Reference: patent US20260085128A1 (BIOLEGEND, published 2026)

T1: human CD157 (human, UniProt Q10588 33-293)
T1 construct: Endogenous CD157 on human U-937 cells and on human blood monocytes and granulocytes; also called BST-1; bone marrow stromal cell antigen 1
T1 sequence: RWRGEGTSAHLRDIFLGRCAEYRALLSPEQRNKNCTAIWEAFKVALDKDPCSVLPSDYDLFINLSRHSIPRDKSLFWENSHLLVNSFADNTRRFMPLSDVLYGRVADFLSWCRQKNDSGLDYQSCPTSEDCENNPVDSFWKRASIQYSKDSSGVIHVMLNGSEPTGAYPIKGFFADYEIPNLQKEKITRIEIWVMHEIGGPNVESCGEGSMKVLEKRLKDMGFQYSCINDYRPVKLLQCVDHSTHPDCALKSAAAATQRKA


Columns and labels:
human CD157 [1] = target: T1, human CD157; assay: flow cytometry, summary sentence of Example 3
human CD157 [2] = target: T1, human CD157; assay: flow cytometry on U-937 cells, anti-rat IgG-PE secondary
Experimental: U-937 cells were grown in RPMI media supplemented with 10% FBS in T75 culture flask, to about 80% confluency. Various concentrations of exemplary generated anti-CD157 antibodies were added, including 2, 1, 0.5, 0.25, 0.125 and 0.06 μg, and allowed to incubate for 15 minutes. Cells were then washed twice with FACS wash buffer and stained with anti-rat IgG-PE secondary antibody for 15 minutes. Cells were washed with FACS buffer and analyzed on a BD LSRII flow cytometer.

binding result (human CD157 [1]) | binding result (human CD157 [2]) | Binder
binds |  | anti-CD157 monoclonal antibody AB3 (antibody, V domains shown, Hybridoma-derived monoclonal antibody; It was detected with an anti-rat IgG-PE secondary antibody; also called antibody 3; clone 3) VH: EVHLVESGGGLVQPGRSLKLSCAASGFTFSNYDMAWIRQAPAKGLEWVASISIRGGSTYYRDSVKGRFTVSRDNAKSTLYLQMDSLRSEDTATYYCVRGTDYYYDYFDYWGQGVMVTVSS VL: NIQMTQSPSLLSASVGDRVTLSCKAGRNINSYLAWYQQMLGEAPKLLIYNANSLQTGIPSRFSGSGSGTDYTLTISSLQPEDVATYFCQQYNSWTNTFGAGTKLELK
 | binds | anti-CD157 monoclonal antibody AB1 (antibody, V domains shown, Hybridoma-derived monoclonal antibody; It was detected with an anti-rat IgG-PE secondary antibody; also called antibody 1; clone 1) VH: QVQLKESGPGLVQPSQTLSLTCTVSGFSLTSYHVSWVRQPPGKGLEWMGIIWTGGSTAYNSLLKSRLSISRDTSKSQVFLKMNSLQTEDTATYYCARSITPTFFDYWGQGVMVTVSS VL: QFVLTQPNSVSTNLGSTVKLSCKRSTGNFGNNYVNWYQQHEGRSPTTMIYRDDKRPDGVPDRFSGSIDRSSNSALLTISNVQTEDEADYFCQSYSSGIVFGGGTKLTVL
